Experimental data reported in paper PMC9760430, “A stapled chromogranin A-derived peptide homes in on tumors that express αvβ6 or αvβ8 integrins” (International Journal of Biological Sciences, 2023).
Ends that are not written are not given here.

Assays:
[1] = biological target: recombinant human αvβ8 integrin (human) (UniProt P06756); experiment: direct integrin binding assay (near-infrared fluorescence scan of plates); microtiter plates coated with αvβ6 or αvβ8; peptide-IRDye conjugates incubated 1 h, washed, bound fluorescence read with Odyssey CLx; EC50
[2] = biological target: recombinant murine αvβ6 integrin (murine) (UniProt P43406); experiment: as above
[3] = biological target: recombinant human αvβ6 integrin (human) (UniProt P06756); experiment: as above
[4] = biological target: recombinant murine αvβ8 integrin (murine) (UniProt P43406); experiment: as above
[5] = biological target: recombinant human αvβ6 integrin (human) (UniProt P06756); experiment: ELISA; competitive integrin binding assay: αvβ6-coated plates, isoDGR peptide labeled with peroxidase as probe for the integrin-binding site; Ki

recombinant murine αvβ8 integrin (murine), sequence (P43406 whole entry, chain 1 of 2): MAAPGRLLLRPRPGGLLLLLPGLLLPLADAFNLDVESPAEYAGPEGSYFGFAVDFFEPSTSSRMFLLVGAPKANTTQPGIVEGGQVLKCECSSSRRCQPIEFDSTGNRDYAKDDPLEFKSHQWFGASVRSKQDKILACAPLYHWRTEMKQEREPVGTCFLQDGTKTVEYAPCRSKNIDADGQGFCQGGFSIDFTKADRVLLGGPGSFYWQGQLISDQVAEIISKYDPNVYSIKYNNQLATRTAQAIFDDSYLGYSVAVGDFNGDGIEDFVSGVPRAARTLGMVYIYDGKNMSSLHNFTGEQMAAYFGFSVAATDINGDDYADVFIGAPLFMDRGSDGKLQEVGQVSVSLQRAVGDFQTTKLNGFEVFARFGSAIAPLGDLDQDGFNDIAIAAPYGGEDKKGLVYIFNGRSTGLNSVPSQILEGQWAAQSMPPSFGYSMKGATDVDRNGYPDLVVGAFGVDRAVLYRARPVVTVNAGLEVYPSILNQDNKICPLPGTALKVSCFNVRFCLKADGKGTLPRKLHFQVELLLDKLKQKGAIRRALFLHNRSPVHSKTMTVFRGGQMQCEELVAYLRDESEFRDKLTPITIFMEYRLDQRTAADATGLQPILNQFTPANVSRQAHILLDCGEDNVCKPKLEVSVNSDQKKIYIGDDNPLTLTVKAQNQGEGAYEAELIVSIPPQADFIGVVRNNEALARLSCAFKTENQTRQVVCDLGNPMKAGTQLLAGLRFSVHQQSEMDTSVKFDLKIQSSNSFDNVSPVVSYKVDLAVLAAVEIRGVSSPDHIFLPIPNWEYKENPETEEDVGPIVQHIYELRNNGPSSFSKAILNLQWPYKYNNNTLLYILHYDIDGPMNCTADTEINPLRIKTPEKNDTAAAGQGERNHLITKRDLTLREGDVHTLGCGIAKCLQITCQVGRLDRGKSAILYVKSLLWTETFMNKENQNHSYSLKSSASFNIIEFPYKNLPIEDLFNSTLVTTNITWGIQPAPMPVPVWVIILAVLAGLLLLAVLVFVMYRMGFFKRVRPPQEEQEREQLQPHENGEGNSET
recombinant murine αvβ8 integrin (murine), sequence (Q0VBD0 whole entry, chain 2 of 2, further chain): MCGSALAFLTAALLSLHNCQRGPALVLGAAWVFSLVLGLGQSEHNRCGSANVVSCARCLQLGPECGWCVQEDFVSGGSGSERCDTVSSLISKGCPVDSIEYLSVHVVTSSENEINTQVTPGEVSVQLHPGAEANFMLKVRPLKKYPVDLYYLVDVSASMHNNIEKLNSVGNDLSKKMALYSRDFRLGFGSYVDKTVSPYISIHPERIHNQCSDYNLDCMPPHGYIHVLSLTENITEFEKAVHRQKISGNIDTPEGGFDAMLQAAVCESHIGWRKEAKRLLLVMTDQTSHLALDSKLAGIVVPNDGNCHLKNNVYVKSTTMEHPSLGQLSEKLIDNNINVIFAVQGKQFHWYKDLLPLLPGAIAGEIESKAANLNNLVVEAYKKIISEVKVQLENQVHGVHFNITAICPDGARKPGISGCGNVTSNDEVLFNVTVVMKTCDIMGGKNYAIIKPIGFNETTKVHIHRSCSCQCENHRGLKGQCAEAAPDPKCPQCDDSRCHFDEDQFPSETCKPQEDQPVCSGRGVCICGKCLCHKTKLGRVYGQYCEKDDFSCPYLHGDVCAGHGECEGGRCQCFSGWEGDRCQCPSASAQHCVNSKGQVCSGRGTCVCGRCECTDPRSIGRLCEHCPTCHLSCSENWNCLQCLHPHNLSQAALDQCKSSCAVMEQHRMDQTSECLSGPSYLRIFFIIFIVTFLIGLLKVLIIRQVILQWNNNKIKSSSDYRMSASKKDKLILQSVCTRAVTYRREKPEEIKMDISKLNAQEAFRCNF
recombinant murine αvβ6 integrin (murine), sequence (P43406 whole entry, chain 1 of 2): as the sequence (P43406 whole entry, chain 1 of 2) above
recombinant murine αvβ6 integrin (murine), sequence (Q9Z0T9 whole entry, chain 2 of 2, further chain): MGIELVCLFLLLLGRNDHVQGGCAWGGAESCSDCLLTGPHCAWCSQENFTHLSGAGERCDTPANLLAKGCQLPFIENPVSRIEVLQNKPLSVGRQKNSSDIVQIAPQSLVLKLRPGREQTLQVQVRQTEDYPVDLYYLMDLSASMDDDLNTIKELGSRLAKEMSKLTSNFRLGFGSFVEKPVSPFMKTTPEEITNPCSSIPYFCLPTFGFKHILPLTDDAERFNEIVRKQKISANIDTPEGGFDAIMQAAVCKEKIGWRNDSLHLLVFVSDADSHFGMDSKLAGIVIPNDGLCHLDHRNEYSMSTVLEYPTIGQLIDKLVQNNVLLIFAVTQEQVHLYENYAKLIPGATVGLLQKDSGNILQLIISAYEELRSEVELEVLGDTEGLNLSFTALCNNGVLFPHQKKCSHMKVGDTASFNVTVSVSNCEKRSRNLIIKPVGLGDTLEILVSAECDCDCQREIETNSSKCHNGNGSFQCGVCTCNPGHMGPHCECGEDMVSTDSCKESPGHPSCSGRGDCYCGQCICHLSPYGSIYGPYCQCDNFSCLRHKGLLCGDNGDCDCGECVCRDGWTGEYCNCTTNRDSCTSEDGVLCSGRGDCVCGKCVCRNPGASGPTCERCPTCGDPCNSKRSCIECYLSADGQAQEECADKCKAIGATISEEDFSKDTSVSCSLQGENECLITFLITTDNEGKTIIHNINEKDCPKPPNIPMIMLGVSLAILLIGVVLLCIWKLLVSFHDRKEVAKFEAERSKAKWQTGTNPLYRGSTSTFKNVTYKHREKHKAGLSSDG

EC50 [1] [µM]	EC50 [2] [µM]	EC50 [3] [µM]	EC50 [4] [µM]	Ki [5] [µM]	Binder
> 0.1	> 0.1	> 0.1	> 0.1	–	C(maleimide‑IRDye 800CW)FETLRGEERILSILRHQNLLKELQD-NH2 [2a-IRDye conjugate]
–	–	–	–	> 1	C(maleimide‑NOTA)FETLRGEERILSILRHQNLLKELQD-NH2 [2a-NOTA conjugate]
